Laboratory results as given in US11440938B2, “Stabilized minimal coiled-coil mimetics” (NEW YORK UNIVERSITY, priority 2015, dated 2022).
Several values for one entry are separate records, joined by “and”; a condition that tells them apart may be missing. Equal values may be shown once. Read-outs that look alike come from different tables or passages of the source. Bridges are numbered along the chain shown (N, C = ends). Where no end group is shown, it is not given here.

B1: NHR2: native GST-tagged NHR2 coiled-coil domain (482-551) of AML1-ETO, expressed in E. coli (protein, UniProt Q06455 482-551, looked up, fragment)
chain: ERAKMERTVAEAKRQAAEDALAVINQQEDSSESCWNCGRKASETCSGCNTARYCGSFCQHKDWEKHHHIC
modifications: NHR2 coiled-coil domain GST tag
notes: native GST-tagged NHR2 coiled-coil domain (482-551) of AML1-ETO, expressed in E. coli

Legend:
[1] = Circular dichroism spectroscopy of helical conformational stability; format: physicochemical; details: 50 mM aqueous KF, pH 7.4, 20 μM peptide
[2] = biological target: T1, fluorescein-labeled N2B peptide (NHR2-binding motif of E-proteins) (Homo sapiens, UniProt Q99081); test: Fluorescence polarization direct binding assay with fluorescein-labeled N2B peptide (flu-N2B); details: 100 nM flu-N2B, 25° C., 10 mM Tris 20 mM NaCl pH 7.4, 0.1% pluronic F-68, triplicate, listed as NHR2482-551, read-out: Kd (binding affinity to fluorescein-labeled N2B peptide)
[3] = biological target: T1, fluorescein-labeled N2B peptide (NHR2-binding motif of E-proteins); details: Sun et al., Nature 500:93 (2013); read-out: KD with flu-N2B, literature reported; cited from earlier work

Molecule	Helical character by CD (in words) [1]	Minimum at 222/208 (ratio of CD bands) [1]	|θ222| (CD ellipticity at 222 nm) [1]	Kd [2]	Kd [3] [µM]
cyclo(GGSSGGELAELEWRLGGSNGGLAERIARLR (macrocyclic; Cyclic peptide AB-2; (1)..(1) Position 1 and 30 are linked by a peptide bond to form a cyclic peptide; (30)..(30) Position 1 and 30 are linked by a peptide bond to form a cyclic peptide)	minimal helicity	0.62	8950	–	–
AB-1: HBS-A helix joined to peptide B by a GGSSGG linker; N-terminal HBS constraint (SEQ ID NO:3) (XELXELEWRLGGSSGGLAERIARLR; not fully specified; HBS constraint; Hydrogen bond surrogate peptide AB-1; (1)..(1) Xaa at position 1 is pentenoic acid; (4)..(4) Xaa at position 4 is N-allylalanine)	weakly helical signature	0.73	8475	–	–
Ac-LWERIARLR-NH2 [B]	nonhelical signatures	–	–	–	–
Ac-ELAELEWRL-NH2	nonhelical signatures	–	–	–	–
ECAELEWRLGGSSGGLAERIARCR (disulfide 2-23; not fully specified (N-terminus, C-terminus)) [AB-3]	did not provide significant helical stabilization	0.62	9460	–	–
B1	–	–	–	356 µM and 363 µM	380 ± 18
